The values that follow come from US20110300138A1 (published 2011).

The target of experiment [1] is TSHR with Phe130 mutated to Ala, expressed in CHO cells (human) (UniProt P16473). The experiment is described as follows: cell-based or functional assay.
The target in experiment [2] is wild type TSHR expressed in CHO cells (human) (UniProt P16473). The experiment in a line: cell-based or functional assay.
Experiment [3] deals with TSHR (thyroid stimulating hormone receptor), full length human (human) (UniProt P16473). The experiment is described as follows: competitor ^125I-K1-70 IgG, TSHR coated tubes; 0.01 µg/mL in HBD.
For experiment [4] the target is unchanged. The experiment in a line: competitor ^125I-K1-70 IgG, TSHR coated tubes; 100 µg/mL in HBD.
The target in experiment [5] is TSH receptor (full length human TSHR) (human) (UniProt P16473). The experiment is described as follows: competition ELISA: inhibition of M22 Fab-peroxidase (competitor) binding to TSHR coated wells; test sample at 10 µg/mL diluted in assay buffer. Background: In an ELISA, binding on a coated surface is turned into a signal by an enzyme label.
Experiment [6] addresses thyroid stimulating hormone receptor (TSHR), full length human TSHR (human) (UniProt P16473). The experiment in a line: TSH-biotin competition ELISA, TSHR coated wells; 0.1 µg/mL in assay buffer.
Experiment [7] addresses TSHR (thyroid stimulating hormone receptor), full length human (human) (UniProt P16473). The experiment is described as follows: competitor ^125I-K1-70 IgG, TSHR coated tubes; 0.1 µg/mL in HBD.
Experiment [8] has the same target. The experiment is described as follows: competitor ^125I-K1-70 IgG, TSHR coated tubes; 10 µg/mL in assay buffer.
Experiment [9] concerns the target TSH receptor (full length human TSHR) coated on tubes (human) (UniProt P16473). The experiment in a line: 125I-TSH binding inhibition read against NIBSC 90/672; 10 ng/mL, in serum.
The target in experiment [10] is thyroid stimulating hormone receptor (TSHR), full length, coated on tubes (human) (UniProt P16473). The experiment is described as follows: inhibition of 125I-TSH binding, TSHR coated tubes; antibody 0.001 µg/mL in assay buffer; mean of duplicate.
For experiment [11], the target named is human TSH receptor (full length) coated on ELISA plate wells (human) (UniProt P16473). The experiment in a line: TSH-biotin binding inhibition ELISA, TSHR coated wells; 0.001 µg/mL in assay buffer + 100 µg/mL 5B3 IgG.
The target of experiment [12] is TSHR with Thr257 mutated to Ala, expressed in CHO cells (human) (UniProt P16473). The experiment in a line: cell-based or functional assay.
For experiment [13], the target named is wild type TSHR (human TSH receptor) expressed in CHO cells (human) (UniProt P16473). The experiment is described as follows: cell-based or functional assay.
The target in experiment [14] is human TSH receptor (full length) coated on ELISA plate wells (human) (UniProt P16473). The experiment is described as follows: TSH-biotin binding inhibition ELISA, TSHR coated wells; 10 µg/mL in HBD serum pool; negative control MAb.
The target in experiment [15] is thyroid stimulating hormone receptor (TSHR), full length human TSHR (human) (UniProt P16473). The experiment is described as follows: TSH-biotin competition ELISA, TSHR coated wells; negative control, 1 µg/mL in assay buffer.
Experiment [16] has the same target. The experiment is described as follows: TSH-biotin competition ELISA, TSHR coated wells; negative control, 1 µg/mL in HBD serum.
For experiment [17], the target named is human TSH receptor (full length) coated on ELISA plate wells (human) (UniProt P16473). The experiment is described as follows: TSH-biotin binding inhibition ELISA, TSHR coated wells; 0.1 µg/mL in HBD serum pool; negative control MAb.
In experiment [18] the target is TSH receptor (full length human TSHR) (human) (UniProt P16473). The experiment in a line: competition ELISA: inhibition of M22 Fab-peroxidase (competitor) binding to TSHR coated wells; negative control at 100 µg/mL diluted in assay buffer.
Experiment [19] concerns the target human TSH receptor (full length) coated on ELISA plate wells (human) (UniProt P16473). The experiment is described as follows: TSH-biotin binding inhibition ELISA, TSHR coated wells; 10 µg/mL in assay buffer + 100 µg/mL 5B3 IgG.
The target of experiment [20] is thyroid stimulating hormone receptor (TSHR), full length, coated on tubes (human) (UniProt P16473). The experiment is described as follows: inhibition of 125I-TSH binding, TSHR coated tubes; antibody 0.1 µg/mL in HBD serum pool.
Experiment [21] has the same target. The experiment in a line: inhibition of 125I-TSH binding, TSHR coated tubes; antibody 0.01 µg/mL in HBD serum pool.
Experiment [22] has the same target. The experiment is described as follows: inhibition of 125I-TSH binding, TSHR coated tubes; antibody 1 µg/mL in assay buffer.
For experiment [23], the target named is human TSH receptor (full length) coated on ELISA plate wells (human) (UniProt P16473). The experiment is described as follows: TSH-biotin binding inhibition ELISA, TSHR coated wells; 0.01 µg/mL in assay buffer.
In experiment [24] the target is TSH receptor (TSHR), full length human, coated on tubes (human) (UniProt P16473). The experiment is described as follows: inhibition of 125I-K1-18 IgG (competitor) binding to TSHR coated tubes; test sample at 1 µg/mL in HBD serum pool; mean of duplicate.
Experiment [25] concerns the target TSH receptor (TSHR) coated on tubes (human) (UniProt P16473). The experiment is described as follows: inhibition of 125I-K1-70 IgG binding to TSHR coated tubes; sample 0.1 µg/mL in assay buffer.
The target in experiment [26] is TSH receptor (TSHR), full length human, coated on tubes (human) (UniProt P16473). The experiment in a line: inhibition of 125I-TSH binding to TSHR coated tubes; 0.01 µg/mL, diluted in assay buffer.
Experiment [27] deals with thyroid stimulating hormone receptor (full length human TSHR) (human) (UniProt P16473). The experiment is described as follows: ELISA, inhibition of TSH-biotin binding to TSHR coated wells; 0.01 µg/mL, diluted in HBD serum pool.

In experiment [1], TSH (ligand) registered a % inhibition of TSH stimulation; TSH (2) of 0%, a Cyclic AMP produced; TSH 3 ng/mL of 121 pmol/mL, a Cyclic AMP produced; TSH (2) of 95.4 pmol/mL and a Mutated/wild type (%) of cyclic AMP produced; TSH 3 ng/mL of 152%. For the same molecule, the Mutated/wild type (%) of cyclic AMP produced; TSH (2) in experiment [1] was 107%. In [2], the % inhibition of TSH stimulation; TSH (2) came out at 0%, the Cyclic AMP produced; TSH 3 ng/mL was 79.4 pmol/mL and the Cyclic AMP produced; TSH (2) was determined as 89.1 pmol/mL.
Regarding 9D33 IgG (antibody), the Inhibition of binding (%) in experiment [3] was 0.6%; in experiment [4] it was 51.1%; in experiment [5] it was 64.2%; in [6], 59.7%; in experiment [7], 14.8%; in experiment [8], 41.7%.
In [9], M22 IgG (antibody) gave a units/L of 1.5 units/L and a units/mg of 150 units/mg. In addition, the Inhibition of binding (%) in experiment [10] amounted to 1.5%. Besides, the % inhibition of TSH-biotin binding in experiment [11] was -7.7%.
With 5B3 IgG (antibody), in [12], the % inhibition of TSH stimulation; 5B3 10 µg/mL was found to be 0%, the % inhibition of TSH stimulation; 5B3 100 µg/mL is 7%, the Cyclic AMP produced; 5B3 10 µg/mL + TSH 3 ng/mL came out at 94.2 pmol/mL and the Cyclic AMP produced; 5B3 100 µg/mL + TSH 3 ng/mL was 86.8 pmol/mL. In experiment [12], the Mutated/wild type (%) of cyclic AMP produced; 5B3 10 µg/mL + TSH 3 ng/mL turned out to be 110% and the Mutated/wild type (%) of cyclic AMP produced; 5B3 100 µg/mL + TSH 3 ng/mL came to 104%. Also, in experiment [13], the Cyclic AMP produced; 5B3 10 µg/mL + TSH 3 ng/mL is 85.9 pmol/mL and the Cyclic AMP produced; 5B3 100 µg/mL + TSH 3 ng/mL came to 83.7 pmol/mL. The % inhibition of TSH-biotin binding in experiment [14] was found to be 11.6%. Besides, in experiment [15], the Inhibition of binding (%) was -8.3%. Also, the Inhibition of binding (%) in experiment [16] was -3.5%. Besides, in experiment [17], the % inhibition of TSH-biotin binding came to 8.6%. Besides, the Inhibition of binding (%) in [18] came to 8.1%.

B1: 5C9 IgG (antibody, from another filing, V domains shown)
VH: EVQLVESGGGLIQPGGSLRLSCAASGFTVSSNYMSWVRQAPGKGLEWVSVTYSGGSTSYADSVKGRFTISRDNSKNTLYLQMNSLRAEDTAVYYCARGGRYCSSISCYARSGCDYWGQGTLVTVSS
VL: AIQMTQSPSSLSASVGDRVTITCRASQSISNYLNWYQQKPGKAPKLLIYAASSLQSGVPSRFSGSGSGTDFTLTISSLQPEDFATYYCQQSYSSPSTTFGQGTKLEIK
For B1, the % inhibition of TSH-biotin binding in experiment [19] was 63.9%; in experiment [23] it was 16.1%. Besides, the Inhibition of binding (%) stood at 16.2% in experiment [20]; 4.1% in experiment [21]; 23.5% in [22]; 26.8% in experiment [24]; 24.6% in experiment [25]; 8.3% in [26]. The Inhibition of binding (%) in experiment [27] is -2.6%.
